Experimental data taken from publication PMC6910952 (Nature Communications, 2019).
Residue numbers refer to the chain shown, from its start.

How the values were obtained:
Settings in all cases: both partners purified
GST-yNpl4 M574Q = molecular target: T1, GST-yNpl4 M574Q (Saccharomyces cerevisiae, UniProt P33755 1-580, M574Q); experiment: pull-down; GST-yNpl4 (0.5 μM, wild type or mutant) on Glutathione Sepharose 4B beads, 1 h at room temperature with 0.5 μM yUfd1, 3 μM Cdc48 (0.5 μM hexamer) and 1 μg K48 chains in 100 μL 50 mM Tris-HCl pH 7.5, 100 mM NaCl, 10% glycerol, 0.1% Triton X-100; chains detected by anti-Ub immunoblot, proteins by Ponceau S
T1 construct: Npl4 of Saccharomyces cerevisiae (yNpl4), full length; source: E. coli Rosetta (DE3) (pGEX-6P1), purified (Glutathione Sepharose FF, Resource Q); not shown: GST, N-terminal, kept
T1 sequence (looked up): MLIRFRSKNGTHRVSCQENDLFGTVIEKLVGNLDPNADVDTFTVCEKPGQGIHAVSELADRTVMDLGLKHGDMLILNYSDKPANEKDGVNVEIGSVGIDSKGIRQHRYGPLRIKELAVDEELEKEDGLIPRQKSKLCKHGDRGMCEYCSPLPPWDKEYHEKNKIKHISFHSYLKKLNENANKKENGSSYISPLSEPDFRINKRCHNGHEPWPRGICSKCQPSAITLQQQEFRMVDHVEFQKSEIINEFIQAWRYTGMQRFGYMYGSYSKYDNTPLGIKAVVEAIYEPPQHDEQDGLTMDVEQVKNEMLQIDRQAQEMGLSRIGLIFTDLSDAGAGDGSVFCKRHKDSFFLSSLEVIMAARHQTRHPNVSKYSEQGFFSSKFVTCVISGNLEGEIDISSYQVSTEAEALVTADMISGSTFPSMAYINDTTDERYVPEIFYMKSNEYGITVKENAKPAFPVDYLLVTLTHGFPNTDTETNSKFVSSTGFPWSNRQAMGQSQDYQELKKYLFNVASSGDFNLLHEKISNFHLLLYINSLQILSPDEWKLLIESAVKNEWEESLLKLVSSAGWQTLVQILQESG

GST-yNpl4 A494F = molecular target: T2, GST-yNpl4 A494F (Saccharomyces cerevisiae, UniProt P33755 1-580, A494F); experiment: as above
T2 construct: Npl4 of Saccharomyces cerevisiae (yNpl4), full length; source: E. coli Rosetta (DE3) (pGEX-6P1), purified (Glutathione Sepharose FF, Resource Q); not shown: GST, N-terminal, kept
T2 sequence (looked up): T1 sequence (looked up) with A494F, Q574M

[1] = molecular target: T3, GST-yNpl4 (full length, wild type) (Saccharomyces cerevisiae, UniProt P33755 1-580); experiment: pull-down; GST-yNpl4 (0.5 μM) on glutathione beads with 0.5 μM yUfd1 alone; full-length proteins; SDS-PAGE, Coomassie (Fig. 3e)
T3 construct: Npl4 of Saccharomyces cerevisiae (yNpl4), full length; codon-optimized synthetic cDNA; also called GST-Npl4; source: E. coli Rosetta (DE3) (pGEX-6P1), purified (Glutathione Sepharose FF, Resource Q); not shown: GST, N-terminal, kept
T3 sequence (looked up): T1 sequence (looked up) with Q574M

binding result (GST-yNpl4 M574Q): binds | binding result (GST-yNpl4 A494F): binds | binding result [1]: binds
B1: yUfd1 (full length, untagged) (natural protein, Saccharomyces cerevisiae, UniProt P53044 1-361, looked up)
chain: MFSGFSSFGGGNGFVNMPQTFEEFFRCYPIAMMNDRIRKDDANFGGKIFLPPSALSKLSMLNIRYPMLFKLTANETGRVTHGGVLEFIAEEGRVYLPQWMMETLGIQPGSLLQISSTDVPLGQFVKLEPQSVDFLDISDPKAVLENVLRNFSTLTVDDVIEISYNGKTFKIKILEVKPESSSKSICVIETDLVTDFAPPVGYVEPDYKALKAQQDKEKKNSFGKGQVLDPSVLGQGSMSTRIDYAGIANSSRNKLSKFVGQGQNISGKAPKAEPKQDIKDMKITFDGEPAKLDLPEGQLFFGFPMVLPKEDEESAAGSKSSEQNFQGQGISLRKSNKRKTKSDHDSSKSKAPKSPEVIEID
notes: Ufd1 of Saccharomyces cerevisiae (yUfd1), full length; codon-optimized synthetic cDNA; removal of GST by HRV3C is surmised; also called untagged Ufd1; source: E. coli Rosetta (DE3) (pGEX-6P1), purified
